Measured values published in patent publication US20250052751A1 (University of California, published 2025).

Biological target: T1, MHC class II I-A^b molecules purified by affinity chromatography (;mouse, UniProt P14434 24-218; P14483 28-226, limits assumed)
T1 construct: Source of the purified I-A^b is not described beyond 'as described (22)'; also called MHC II (I-A^b); MHC II
T1 sequence (MHC II alpha, looked up): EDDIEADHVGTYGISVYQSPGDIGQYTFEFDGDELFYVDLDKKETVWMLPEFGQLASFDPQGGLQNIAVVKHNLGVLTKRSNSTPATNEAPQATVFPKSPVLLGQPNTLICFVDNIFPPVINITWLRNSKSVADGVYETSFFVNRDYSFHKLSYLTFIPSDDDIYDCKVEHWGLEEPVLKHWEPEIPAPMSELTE
T1 sequence (MHC II beta, looked up): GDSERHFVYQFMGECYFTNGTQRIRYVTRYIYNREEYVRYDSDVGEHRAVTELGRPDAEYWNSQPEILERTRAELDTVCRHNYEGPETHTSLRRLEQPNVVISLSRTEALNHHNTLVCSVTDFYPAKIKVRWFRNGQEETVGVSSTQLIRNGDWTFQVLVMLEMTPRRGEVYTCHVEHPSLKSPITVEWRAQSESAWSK
Test: competitive binding assay, purified I-A^b, radiolabeled competitor peptide
Procedure: We have now examined AQP4 peptide affinity for I-A^b biochemically. I-A^b molecules that were purified by affinity chromatography were tested in a competitive binding assay between a radiolabeled high-affinity competitor peptide and unlabeled peptides (22). Indeed, peptides containing the two pathogenic AQP4 T cell determinants bound I-A^b with higher affinity than the nonpathogenic AQP4 p24-35 T cell epitope or MOG p35-55 (FIG. 2D).

B1: AQP4 p202-218 (peptide)
peptide: LFAINYTGASMNPARSF
notes: Synthetic peptide (Genemed Synthesis); also called pathogenic AQP4 T cell determinant
fold greater affinity than MOG p35-55: > 10 fold
